Reference: patent publication US20230303666A1

Key:
[1] = molecular target: SARS-CoV-2 spike receptor binding domain with C-terminal 3xFlag tag (RBD-3xFlag) (SARS-CoV-2) (UniProt P0DTC2)
[2] = molecular target: SARS-CoV-2 spike receptor binding domain with C-terminal 3xFlag tag (RBD-3xFlag) (SARS-CoV-2) (UniProt P0DTC2); remark: listed apart in the source

Substance: VHH72
- ELISA A450 [1]: 0.287 A450
- heated/non heated ratio of ELISA reading [2]: 0.33
